Test results as given in PMC2856916.

Assays:
[1] = tested on: histone octamer H3 K56Ac (smFRET); assay: single-molecule FRET; conditions: DNA breathing increased by K56Ac; Binding assay buffers not given in material; array DNA kept in 2 M NaCl, 10 mM TEA, 1 mM EDTA; reconstituted arrays dialysed into 1 mM MgCl2, 10 mM TEA pH 7.4
[2] = tested on: histone octamer unacetylated H3 (smFRET); assay: single-molecule FRET; conditions: reference; Binding assay buffers not given in material; array DNA kept in 2 M NaCl, 10 mM TEA, 1 mM EDTA; reconstituted arrays dialysed into 1 mM MgCl2, 10 mM TEA pH 7.4

In the case of mononucleosome DNA for smFRET, the binding signal (fold DNA breathing vs unacetylated) [1] is reported as 7 and the binding signal (fold DNA breathing (reference)) [2] is reported as 1.
